Data taken from patent US20240141047A1 (AGENUS, published 2024).

Target: T1, human TIGIT fused to Fc (human, UniProt Q495A1 22-141)
T1 construct: Called a dimeric form of TIGIT; also called human TIGIT-Fc; human dimeric TIGIT-Fc; not shown: Fc
T1 sequence: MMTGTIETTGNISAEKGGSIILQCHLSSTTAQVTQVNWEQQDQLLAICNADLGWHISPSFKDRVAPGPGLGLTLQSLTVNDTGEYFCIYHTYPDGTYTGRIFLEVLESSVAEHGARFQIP
Experiment: SPR, human TIGIT-Fc captured on CM5 chip, BA002 Fab in solution, 1:1 model
Description: Briefly, surface plasmon resonance experiments were performed using a Biacore T200 instrument, and the association rate (Kₐ), dissociation rate (Kd), and dissociation constant (KD) were calculated from each experiment using a 1:1 binding model with Biacore T200 Evaluation Software.
In a similar experiment measuring binding of a monovalent form of BA002 to human TIGIT-Fe, human TIGIT-Fc was captured on flow-cell 2 of a CM5 chip, keeping flow-cell 1 as reference, at a flow rate of 5 μL/min. […] The higher calculated dissociation rate between human TIGIT-Fc and BA002 Fab, relative to the calculated dissociation rate between human TIGIT-Fc and full-length BA002 described above, is consistent with the presence of an avidity effect with the bivalent form of BA002.

B1: BA002 in Fab format (Fab, V domains shown)
VH: EVQLVQSGAEVEKPGASVKVSCKASGYTFASYGISWVRQAPGQGLEWMGGITPFFNRVDVAEKFQGRVTITADTSTNTVYIELSSLTSEDTAVYYCARDLRRGGVGDAFDIWGRGTLVTVSS
VL: QSALTQPRSVSGSPGQSVTISCTGTSSDVGSHNYVSWYQQHPGKAPQLMIYEVSYRPSEISNRFSGSKSGNTASLTISGLQPEDEADYYCSSYTPSSATVFGAGTKLTVLG
modifications: chain 1 pos 1: glutamate or pyroglutamate (from Glu), written E; chain 2 pos 1: glutamine or pyroglutamate (from Gln), written Q
notes: also called BA002 Fab; monovalent form of BA002
**Q.** With B1 as the binder, how does the Kd read?
**A.** 6.8 nM

**Q.** And the koff?
**A.** 0.019 s⁻¹

**Q.** What about the kon of the same binder?
**A.** 2.8e+06 M⁻¹ s⁻¹
